B1: TPR t1 (parent)
chain: GACCAAUCUGCCCUCAGAGCUCGAGAACAUCUUCGGAUGCAGAGGAGGCAGGCUUCGGUGGCGCGAUAGCGCCAACGUCCUCAACCUCCAAUGCAUCCCACCACAUGAUGAUGCCUGAAGAGCCUUGGUUUUUUG

Variants of: B1
Test: polymerase ribozyme fitness, log enrichment relative to wild type (log ratio); higher = more active; in vitro selection for triplet polymerase activity
Outline: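 Both subunits of a heterodimeric triplet polymerase ribozyme were given their own mutant library, built by PCR and transcribed. Each library was annealed with a biotinylated primer, the partner subunit and triplets, incubated frozen at −7 °C, and its extended constructs gel-excised, captured on streptavidin beads and amplified by RT-PCR, all in one round done in triplicate. Fitness is the logarithm of genotype enrichment relative to wild-type enrichment, with replicates averaged by inverse-variance weighting. That logarithm is base 2, and Illumina-sequenced genotypes needed ≥10 input reads and ≥1 read per output.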

| Variant | polymerase ribozyme fitness (log ratio) |
| --- | --- |
| GACCAAUCUGGCCUCAGUGCUCGAGAACAUCUUCGGAUGCAGAGGAGUUAGGCUUCGGUGACGCGAUAGCGCCAACGUCCUCAACCUCCAAUGCAUCCCACCACAUGAUGAUGCCUGAAGAGCCUUGGUUUUUUG [C11G A18U G48U C49U G61A] | -3.32 |
| GACCAAUCUGGCCUCAGUGCUCGAGAACAUCUUCGGAUGCAGAAGAGGCAGGCUUCGGUGGCGCGAUAUCGCCAACGUCCUCAACCUCCAAUGCAUCCCACCACAUGAUGAUGCCUGAAGAGCCUUGGUUUUUUG [C11G A18U G44A G69U] | 0.139 |
| GACCAAUCUGACCUCAGAGCUCGAGAACAUCUUCGGAUGCAGAGGAGGCAGGCUUCGGUUGCGCGAUAGCGCCAACGUCCUCAACCUCCAAUGCAUCCCACCACAUGAUGAUGCCUGAAGAGCCUUGGUUUUUUG [C11A G60U] | -0.589 |
| GACCAAUCUGACCUCAGAGCUCGAGAACAUCUUCGGAUGCAGAGGAGGCAGGCUUCGGUGGCGCGAUAGCGCCAACGUCCUCAACCUCCAAUGCAUCCCACCACAUGAUGAUGCCUGAAGAGCCUUGGUUUUAUG [C11A U133A] | -2.64 |
| GACCAAUCUGACCUCAGAGCUCGAGAACAUCUUCGGAUGCAGAGGAGGCAGGCUUCGGUCGCGCGAUAGCGCCAACGUCCUCAACUUCCAAUGCAUCCCACCACAUGAUGAUGCCUGAAGAGCCUUGGUUUUUUG [C11A G60C C86U] | -1.76 |
| GACCAAUCUGACCUCAGAGCUCGAGAACAUCUUCGGAUGCAGAGGAGGCAGGCUUCGGUGGCGCGAUAGCGCCAACGCCCUCAACCUCCAAUGCAUCCCACCACAUGAUGAUGCCUGAAGAGCCUUGGUUUUUUG [C11A U78C] | -0.895 |
| GACCAAUCUGACCUCAGAGCUCGAGAACAUCUUCGGAUGCAGAGGAGGCAGGCUUCGGUGACGCGAUAGCGCCAACGUCCUCAACCUCCAAUGCAUCCCACCAAAUGAUAAUGCCUGAAGAGCCUUGGUUUUUUG [C11A G61A C104A G110A] | -5.34 |
| GACCAAUCUGGCCUCAGAGCUCGAGAACAUCUUCGGAUGCAGAGGAGGCAGGCUUCGGUGGCGCGAUAGCGCCAACGUCCUCAACCUCCAAUGCAUCCCACCACAUGAUGAUGCCUGAAGAGCCUUGGUUUUUUG [C11G] | 0.294 |
| GACCAAUCUGACCUCAGAGCUCGAGAACAUCUUCGGAUGCAGAGGAGGCAGGCUUCGGUGACGCGAUAGCGCCAACGUCCUCAACCUCCAAUACAUCCCAGCACAUGAUGAAGCCUGAAGAGCCUUGGUUUAUUG [C11A G61A G93A C101G U112A U132A] | -1.04 |
| GACCAAUCUGACCUCAGAGCUCGAGAACAUCUUCGGAUGCAGAGGAGGCAGGCUUCGGUUGCGCGAUAGCGCCAACGUCCUCUACCUCCAAUGCAUCCCACCACAUGAUGAUGCCUGAAGAGCCUUGGUUUUUUG [C11A G60U A83U] | -2.13 |
| GACCAAUCUGACCUCAGAGCUCGAGAACAUCUUCGGAUGCAGAGGAGGCAGGCUUCGGUUGCGCGAUAGCGCCAACGUCCUCAACCUCCAAUGCAUCCCACCACAUGAUGAAGCCUGUAGAGCCUUGGUUUUUUG [C11A G60U U112A A118U] | 0.776 |
| GACCAAUCUGGCCUCAGGGCUCGAGAACAUCUUCGGAUGCAGAGGAGGGAGGCUUUGGUGGCGCGAUAGCGCCAACGUCCUCAACCUCCAAUGCAUCCCACCACAUGAUGAUGCCUGAAGAGCCUUGGUUUUUUG [C11G A18G C49G C56U] | -3.38 |
| GACCAAUCUGACCUCAGAGCUCGAGAACAUCUUCGGAUGCAGAGGAGGCAGGCUUCGGUGGCGCGAUACCGCCAACGUCCUCAACCUCCAAUGCAUCCCACCACAUGAUGAUGCCUGAAGGGCCUUGGUUUUUUG [C11A G69C A121G] | -0.0496 |
| GACCAAUCUGACCUCAGAGCUCGAGAACACCUUCGGAUGCAGAGGAGGCAGGCUUCGGUGGCGCGAUAGCGCCAACGUCCUCAACCUCCAAUGCAUCCCACCACAUGAUGAUGCCUGAAGAGCCUUGGUUUUUUG [C11A U30C] | -5.07 |
| GACCAAUCUGACCUCAGAGCUCGAGAACAUCUUCGGAUGCAGAGGAGGCAGGCUUCGGUGGCGCGAUAGCGCCAACGUCCUCAACCUCCAAUGCAUCCCACCACAUGAUGAUACCUGAAGAGCCUUGGUUUUUUG [C11A G113A] | -3.12 |
| GACCAAUCUGACCUCAGAGCUCGAGAACAUCUUCGGAUGCAGAGGAGGCAGGCUUCGGUGCCGCGAUAGCGCCAACGUCCUCAACCUCCAAUGCAUCCCACCACAUGAUGAUGCCUGAAGAGCCUUGGUUUUUUG [C11A G61C] | -2.39 |
| GACCAAUCUGGCCUCAGGGCUCGAGAACAUCUUCGGAUGCAGAGGAGGCAGGCUUCGGUGGCGCGAUAGCGCCAACGUCCUCAACCUCCAAUGCAUUCCACCACAUGAUAAUGCCUGAAGAGCCUUGGUUUUUUG [C11G A18G C97U G110A] | -3.11 |
| GACCAAUCUGACCUCAGAGCUCGAGAACAUCUUCGGAUGCAGAGGAGGCAGGCUUCGGUGGCGCGAUAGCGCCAACGUCCUCAACCUCCAAUCCAUCCCACCACAUGAUGAUGCCUGAAGAGCCUUGGUUUUUUG [C11A G93C] | -1.54 |
| GACCAAUCUGACCUCAGAGCUCGAGAACAUCUUCGGAUGCAGAGGAGGCAGGCUUCGGUGGCGCGAUAGCGCCAACGACCUCAACCUCCAAUGCAUCCCACCACAUGAUGAUGCCUGAAAAGCCUUGGUUUUUUG [C11A U78A G120A] | 1.31 |
| GACCAAUCUGGCCUCAGAGCUCGAGAGCAUCUUCGGAUGCAGAGGAGGCAGGCUUCGGUGGCCCGAUAGCGCCAACGUCCUCAACCUCCAAUACAUCCCACCACAUGAUGAUGCCUGAAGAGCCUUGGUUUUUUG [C11G A27G G63C G93A] | -3.72 |
| GACCAAUCUGGCCUCAGAGCUCGAGAGCAUCUUCGGAUGCAGAGGAGGCAGGCUUCGGUGGCGCGAUAGCGCCAACGUCCUCAAACUCCAAUGCAUCCCACCACAUGAUGAUGCCUGAAGAGCCAUGGUUUUUUG [C11G A27G C85A U125A] | -2.01 |

From the RNAGym collection of RNA variant scans (doi:10.1073/pnas.2313332121)
